Laboratory results from patent publication US12630600B2 (MEDIMMUNE LIMITED, priority 2022, dated 2026).
Starred links: 1 amine or outer side, 2 acyl side, 3 side chain; linkers in the order of their positions; H or OH if unused. Non-standard residues stand in square brackets, D forms with d. Groups on a side chain read outwards from the residue. No end group written: not given here. *: point of attachment. C20 diacid = O=C(O)CCCCCCCCCCCCCCCCCCC(=O)*; C18 diacid = O=C(O)CCCCCCCCCCCCCCCCC(=O)*; PEG8 = NCCOCCOCCOCCOCCOCCOCCOCCOCCC(=O)O; Dip = N[C@H](C(=O)O)C(c1ccccc1)c1ccccc1; γGlu = O=C(O)[C@H](CCC(=O)[*:2])N[*:1]; Stearoyl = CCCCCCCCCCCCCCCCCC(=O)*; αMeF = C[C@](N)(Cc1ccccc1)C(=O)O; (PEG)2 = polyethylene glycol 2; PEG4 = NCCOCCOCCOCCOCCC(=O)O; AEEA = NCCOCCOCC(=O)O; Aib = CC(C)(N)C(=O)O

Columns and labels:
[1] = molecular target: human GLP-1 receptor (human, UniProt P43220); assay: cell-based or functional assay
[2] = molecular target: human glucagon receptor (human, UniProt P47871); assay: cell-based or functional assay

cAMP production, hGLP-1R EC50 (pM) [1] [pM] | cAMP production, hGluc-R EC50 (pM) [2] [pM] | Binder
9.09 | 16.9 | HSQGS[αMeF]TSDVSK[Dip]LDSK([PEG8-γGlu-γGlu-Stearoyl])AAQD[αMeF]VE[Aib]IINT-NH2 (N-terminus assumed; SMILES CCCCCCCCCCCCCCCCCC(=O)N[C@@H](CCC(=O)N[C@@H](CCC(=O)NCCOCCOCCOCCOCCOCCOCCOCCOCCC(=O)NCCCC[C@H](NC(=O)[C@H](CO)NC(=O)[C@H](CC(=O)O)NC(=O)[C@H](CC(C)C)NC(=O)[C@@H](NC(=O)[C@H](CCCCN)NC(=O)[C@H](CO)NC(=O)[C@@H](NC(=O)[C@H](CC(=O)O)NC(=O)[C@H](CO)NC(=O)[C@@H](NC(=O)[C@](C)(Cc1ccccc1)NC(=O)[C@H](CO)NC(=O)CNC(=O)[C@H](CCC(N)=O)NC(=O)[C@H](CO)NC(=O)[C@@H](N)Cc1c[nH]cn1)[C@@H](C)O)C(C)C)C(c1ccccc1)c1ccccc1)C(=O)N[C@@H](C)C(=O)N[C@@H](C)C(=O)N[C@@H](CCC(N)=O)C(=O)N[C@@H](CC(=O)O)C(=O)N[C@@](C)(Cc1ccccc1)C(=O)N[C@H](C(=O)N[C@@H](CCC(=O)O)C(=O)NC(C)(C)C(=O)N[C@H](C(=O)N[C@H](C(=O)N[C@@H](CC(N)=O)C(=O)N[C@H](C(N)=O)[C@@H](C)O)[C@@H](C)CC)[C@@H](C)CC)C(C)C)C(=O)O)C(=O)O) [Peptide 57]
41.2 | 99 | H[Aib]QGTFTSDVSK[αMeF]LDSK([AEEA-AEEA-γGlu-C20 diacid])RAQDFVRWLL[Aib]E-OH (N-terminus assumed; SMILES CC(C)C[C@H](NC(=O)[C@H](Cc1c[nH]c2ccccc12)NC(=O)[C@H](CCCNC(=N)N)NC(=O)[C@@H](NC(=O)[C@H](Cc1ccccc1)NC(=O)[C@H](CC(=O)O)NC(=O)[C@H](CCC(N)=O)NC(=O)[C@H](C)NC(=O)[C@H](CCCNC(=N)N)NC(=O)[C@H](CCCCNC(=O)COCCOCCNC(=O)COCCOCCNC(=O)CC[C@H](NC(=O)CCCCCCCCCCCCCCCCCCC(=O)O)C(=O)O)NC(=O)[C@H](CO)NC(=O)[C@H](CC(=O)O)NC(=O)[C@H](CC(C)C)NC(=O)[C@](C)(Cc1ccccc1)NC(=O)[C@H](CCCCN)NC(=O)[C@H](CO)NC(=O)[C@@H](NC(=O)[C@H](CC(=O)O)NC(=O)[C@H](CO)NC(=O)[C@@H](NC(=O)[C@H](Cc1ccccc1)NC(=O)[C@@H](NC(=O)CNC(=O)[C@H](CCC(N)=O)NC(=O)C(C)(C)NC(=O)[C@@H](N)Cc1c[nH]cn1)[C@@H](C)O)[C@@H](C)O)C(C)C)C(C)C)C(=O)N[C@@H](CC(C)C)C(=O)NC(C)(C)C(=O)N[C@@H](CCC(=O)O)C(=O)O) [Peptide 153]
4.86 | 10.9 | HSQGS[αMeF]TSDVSK[Dip]LDSK([PEG4-γGlu-γGlu-Stearoyl])AAQD[αMeF]VE[Aib]IINT-NH2 (N-terminus assumed; SMILES CCCCCCCCCCCCCCCCCC(=O)N[C@@H](CCC(=O)N[C@@H](CCC(=O)NCCOCCOCCOCCOCCC(=O)NCCCC[C@H](NC(=O)[C@H](CO)NC(=O)[C@H](CC(=O)O)NC(=O)[C@H](CC(C)C)NC(=O)[C@@H](NC(=O)[C@H](CCCCN)NC(=O)[C@H](CO)NC(=O)[C@@H](NC(=O)[C@H](CC(=O)O)NC(=O)[C@H](CO)NC(=O)[C@@H](NC(=O)[C@](C)(Cc1ccccc1)NC(=O)[C@H](CO)NC(=O)CNC(=O)[C@H](CCC(N)=O)NC(=O)[C@H](CO)NC(=O)[C@@H](N)Cc1c[nH]cn1)[C@@H](C)O)C(C)C)C(c1ccccc1)c1ccccc1)C(=O)N[C@@H](C)C(=O)N[C@@H](C)C(=O)N[C@@H](CCC(N)=O)C(=O)N[C@@H](CC(=O)O)C(=O)N[C@@](C)(Cc1ccccc1)C(=O)N[C@H](C(=O)N[C@@H](CCC(=O)O)C(=O)NC(C)(C)C(=O)N[C@H](C(=O)N[C@H](C(=O)N[C@@H](CC(N)=O)C(=O)N[C@H](C(N)=O)[C@@H](C)O)[C@@H](C)CC)[C@@H](C)CC)C(C)C)C(=O)O)C(=O)O) [Peptide 56]
48 | 270 | H[Aib]QGTFTSDVSK[αMeF]LDSK([AEEA-AEEA-γGlu-C18 diacid])RARDFVRWLL[Aib]TE-OH (also: αMePhe at 23 (V)) [Peptide 166]

More lines, now with the values behind:

Binder | cAMP production, hGLP-1R EC50 (pM) [1] [pM] | cAMP production, hGluc-R EC50 (pM) [2] [pM]
H[Aib]QGS[αMeF]TSDVSK[αMeF]LDSK([AEEA-AEEA-γGlu-γGlu-C18 diacid])AAQD[αMeF]VQ[Aib]IAN-NH2 (N-terminus assumed; SMILES CC[C@H](C)[C@H](NC(=O)C(C)(C)NC(=O)[C@H](CCC(N)=O)NC(=O)[C@@H](NC(=O)[C@](C)(Cc1ccccc1)NC(=O)[C@H](CC(=O)O)NC(=O)[C@H](CCC(N)=O)NC(=O)[C@H](C)NC(=O)[C@H](C)NC(=O)[C@H](CCCCNC(=O)COCCOCCNC(=O)COCCOCCNC(=O)CC[C@H](NC(=O)CC[C@H](NC(=O)CCCCCCCCCCCCCCCCC(=O)O)C(=O)O)C(=O)O)NC(=O)[C@H](CO)NC(=O)[C@H](CC(=O)O)NC(=O)[C@H](CC(C)C)NC(=O)[C@](C)(Cc1ccccc1)NC(=O)[C@H](CCCCN)NC(=O)[C@H](CO)NC(=O)[C@@H](NC(=O)[C@H](CC(=O)O)NC(=O)[C@H](CO)NC(=O)[C@@H](NC(=O)[C@](C)(Cc1ccccc1)NC(=O)[C@H](CO)NC(=O)CNC(=O)[C@H](CCC(N)=O)NC(=O)C(C)(C)NC(=O)[C@@H](N)Cc1c[nH]cn1)[C@@H](C)O)C(C)C)C(C)C)C(=O)N[C@@H](C)C(=O)N[C@@H](CC(N)=O)C(N)=O) [Peptide 5] | 283 | 7140
H[Aib]HGS[αMeF]TSDVSK[αMeF]LDSK([AEEA-AEEA-γGlu-C18 diacid])AAQD[αMeF]VEWIAN-NH2 (N-terminus assumed; SMILES CC[C@H](C)[C@H](NC(=O)[C@H](Cc1c[nH]c2ccccc12)NC(=O)[C@H](CCC(=O)O)NC(=O)[C@@H](NC(=O)[C@](C)(Cc1ccccc1)NC(=O)[C@H](CC(=O)O)NC(=O)[C@H](CCC(N)=O)NC(=O)[C@H](C)NC(=O)[C@H](C)NC(=O)[C@H](CCCCNC(=O)COCCOCCNC(=O)COCCOCCNC(=O)CC[C@H](NC(=O)CCCCCCCCCCCCCCCCC(=O)O)C(=O)O)NC(=O)[C@H](CO)NC(=O)[C@H](CC(=O)O)NC(=O)[C@H](CC(C)C)NC(=O)[C@](C)(Cc1ccccc1)NC(=O)[C@H](CCCCN)NC(=O)[C@H](CO)NC(=O)[C@@H](NC(=O)[C@H](CC(=O)O)NC(=O)[C@H](CO)NC(=O)[C@@H](NC(=O)[C@](C)(Cc1ccccc1)NC(=O)[C@H](CO)NC(=O)CNC(=O)[C@H](Cc1c[nH]cn1)NC(=O)C(C)(C)NC(=O)[C@@H](N)Cc1c[nH]cn1)[C@@H](C)O)C(C)C)C(C)C)C(=O)N[C@@H](C)C(=O)N[C@@H](CC(N)=O)C(N)=O) [Peptide 6] | 568 | 516
HSQGS[αMeF]TSDVSK[Dip]LDSK([(PEG)2-(PEG)2-γGlu-γGlu-Stearoyl])AAQD[αMeF]VQ[Dip]LEA-NH2 [Peptide 55] | 18.8 | 19.1
